Measured values as given in publication PMC5093203 (Pharmaceutical Research, 2016).
Marks after values point to notes of the source that are not given here.

Key:
[1] = design: method as in 2 sources, ref 28 = [28]; PMID 22353017; doi:10.1021/mp200470c; 28. Gokarn YR McLean M Laue TM Effect of PEGylation on protein hydrodynamics Mol Pharm 2012 9 4 762 73 10.1021/mp200470c 22353017 ||| ref 28, 34, 35 = [28]; PMID 22353017; doi:10.1021/mp200470c; 28. Gokarn YR McLean M Laue TM Effect of PEGylation on protein hydrodynamics Mol Pharm 2012 9 4 762 73 10.1021/mp200470c 22353017 || [34]; PMID 23499718; doi:10.1016/j.jconrel.2013.03.006; 34. Kaminskas LM Ascher DB McLeod VM Herold MJ Le CP Sloan EK PEGylation of interferon alpha2 improves lymphatic exposure after subcutaneous and intravenous administration and improves antitumour effi || [35]; PMID 19686787; doi:10.1016/j.jconrel.2009.08.005; 35. Kaminskas LM Kota J McLeod VM Kelly BD Karellas P Porter CJ PEGylation of polylysine dendrimers improves absorption and lymphatic targeting following SC administration in rats J Controlled Release; conditions: 14.3-kDa egg white lysozyme with vs without 20-kDa PEG; cited from earlier work
[2] = Hydrodynamic size by dynamic light scattering (DLS); assay type: physicochemical; conditions: 25 ± 1°C, 90° scattering angle, 633 nm, ~85 μM in 1x PBS, viscosity-corrected
Description: Weighed-samples of freeze-dried powder were dissolved in 1x phosphate-buffered saline (PBS) to a final concentration of ~85 μM. Concentrated protein stock solutions were diluted ~20-fold in 1 × PBS buffer to achieve a final concentration of ~85 μM. Protein concentrations (OD276 (1 mg/ml) = 1 for a 1 cm cuvette) were measured by NanoDrop (Thermo Fisher Scientific, Waltham, MA, USA). All samples were filtered through Whatman Anatop10™ low protein-binding filters (Whatman, Kent, UK) before the DLS experiments. Solution viscosity was measured by an m-VROC® (RheoSense, Inc., San Ramon, CA, USA) viscometer and light scattering data were corrected using the measured viscosity.
DLS measurements were carried out at 25 ± 1°C at a 90° scattering angle using an ALV/CGS-3 Compact Goniometer system with ALV/LSE-5003 Light Scattering Electronics and Multiple Tau Digital Correlator (ALV®-GmbH, Langen, Germany). The laser operating wavelength was 633 nm. The apparent hydrodynamic radius Rh was estimated via the Stoke-Einstein equation (Eq. 1):1 Rh=kBT/6πηD where, Rh is the apparent hydrodynamic radius (m), kB is the Boltzmann constant (kg^●m^2/s^2●K), T is the absolute temperature (K), η is the viscosity (kg/m•s), and D is the diffusion constant (m^2/s). DH is the apparent hydrodynamic diameter in nm or 2 Rhinnm . The viscosity measurement was performed with a solution concentration of 0.49 ± 0.02 mg/mL at 25°C. Viscosity mean and SD was determined from n ≥8 and reported as cP, (g/cm•s) = 10^−3 × Pa•s (kg/m•s)

[3] = LDC sheep, SC commercially formulated human insulin; cited from earlier work
[4] = in vivo; cited from earlier work
[5] = in vivo, sc
Description: Using a parallel group design, BIL was administered by single dose SC injection to non-LDC control sheep and to LDC sheep with a surgically placed popliteal lymph duct cannula (Table I). Blood was collected in each group, and lymph was continuously collected in the LDC sheep. BIL was also administered by bolus IV injection to a separate group of non-LDC animals for determining bioavailability and PK linearity.
Surgery was performed under aseptic conditions. Castrated male merino sheep (H.M. Barty & Sons Merino Stud, Robinvale, Victoria, Australia) weighing 31–48 kg were used. […]
In LDC sheep, lymph samples were collected in pre-weighed tubes containing 10 μL/mL of 10% EDTA at the following time points: Predose, 0–1, 1–2, 2–3, 3–4, 4–5, 5–6, 6–7, 7–8, 8–9, 9–10, 10–11, 11–12, 12–24, 24–36, 36–48, 48–60, 60–72, 72–84, 84–96 h post dose. At each time interval, the amount of lymph collected was determined gravimetrically. […]
BIL concentrations in serum and lymph were determined by ELISA performed by the bioanalytical testing facility Charles River Laboratories Preclinical Services (Senneville, Quebec, Canada) as described previously for rat serum ([27]). The assay quantitation range for rat serum was 20 pM to 500 pM. Assay quantitation range for sheep serum was from 20 pM to 500 pM. […] The quantitation range for sheep lymph was also 20 to 500 pM. […]

[6] = Serum pharmacokinetics in lymph duct cannulated (LDC) sheep (IV, SC); design: species or system merino sheep; conditions: in vivo
Description: (§1) Surgery was performed under aseptic conditions.
(§2) Blood samples (3 mL) were collected into 4 mL serum collection tubes (Becton, Dickinson and Company, Scoresby, Victoria, Australia) at the following time points (hour): predose, […] (1 min, IV only), 0.083 (5 min, IV only), 0.25 (15 min, IV only), 0.5, 1, 2, 3 (SC LDC only), 4, 6, 8, 10, 12 (all IV and SC LDC), 18 (SC non-LDC only), 30 (all SC), 39 (SC non-LDC only), 48 (all SC), 54 (all SC), 72 (all SC), 96 (SC LDC only), and 120 (SC LDC only) hours postdose. The jugular cannula was flushed with heparinized saline (50 IU/mL) between samples to maintain patency. Blood samples were allowed to stand at room temperature for up to 1 h and were then centrifuged for 10 min 6000 rpm to separate serum.
(§3) Noncompartmental pharmacokinetic parameters for the rat study were determined using WinNonlin® professional v5.3 (Pharsight, St. Louis, MO, USA) and for the sheep study using Watson^TM (version 7.4.2 PRD872, Thermo Fisher Scientific, Inc). Concentrations below the lower limit of quantitation were assigned a value of zero and the zero result used in the calculation of means and standard deviation using MicroSoft® Office® Excel® 2010 (version 14.0.; Redmond, WA). Descriptive statistics were calculated as appropriate. SigmaPlot® v11 (Systsat Software, IC., San Jose, CA, USA) and Excel® were used for the graphics.

[7] = Serum pharmacokinetics in non-LDC sheep (IV, SC); assay type: in vivo, merino sheep
Description: as §1, §2, §3

[8] = rat, in vivo, sc; cited from earlier work
[9] = design: species or system Sprague Dawley rats; conditions: rat, in vivo, iv
Description: The 5/6-nephrectomized and sham male Sprague Dawley rats were obtained from Taconic Farms (Albany, NY, USA). Animals were housed two per cage in polycarbonate cages with filter tops. Animals were maintained on a 12/12 h light/dark cycle (lights on at 6:00 AM). All animals received water and LabDiet 5001 (PMI Nutrition International, Brentwood, MO, USA) ad libitum. Animals were monitored daily during the 5-week time frame that allowed progression of the disease state. Seven weeks post-surgery, blood was collected by tail clip into serum tubes for measurement of serum creatinine and blood urea nitrogen. Three days later, urine was collected for 24 h from animals housed in metabolism cages. […]
BIL concentrations in serum and lymph were determined by ELISA performed by the bioanalytical testing facility Charles River Laboratories Preclinical Services (Senneville, Quebec, Canada) as described previously for rat serum ([27]). The assay quantitation range for rat serum was 20 pM to 500 pM. […] Samples above the upper limit of quantitation were diluted and reanalyzed to gain results within the calibrated range. […]
Noncompartmental pharmacokinetic parameters for the rat study were determined using WinNonlin® professional v5.3 (Pharsight, St. Louis, MO, USA) and for the sheep study using Watson^TM (version 7.4.2 PRD872, Thermo Fisher Scientific, Inc). […] Descriptive statistics were calculated as appropriate. […]

[10] = non-LDC sheep, SC 120 nmol, serum, mean ± SD, N = 5

## 20-kDa PEG egg white lysozyme: 14.3-kDa egg white lysozyme with addition of 20-kDa PEG
[1]
  hydrodynamic diameter: 9.6 nm

## egg white lysozyme
[1]
  hydrodynamic diameter: 4.0 nm

## insulin
[2]
  apparent hydrodynamic diameter (DH): 2.1 nm
[3]
  % of the insulin dose recovered in the peripheral lymph: 17.3%

## insulin peglispro [BIL]
[4]
  PK properties in renal insufficiency (in words): unaffected
[5]
  % of dose recovered in the peripheral lymph: 88%
[2]
  apparent hydrodynamic diameter (DH): 7.6 nm
[6]; iv, 120 nmol
  AUC0-t: 0.1395 ± 0.0606932 µM·h
  C0: 70.175 ± 13.6001 nM
  CL: 0.37 ± 0.12 mL/min/kg
  T1/2: 5.7 ± 2.1 h
  Vdss: 0.04 ± 0.01 L/kg
[6]; sc
  % bioavailability: < 2%
[6]; sc, 120 nmol
  % bioavailability: 1.7%
  AUC0-t: 0.0025945 ± 0.0025636 µM·h
  Cmax: 0.4153 ± 0.384 nM
  T1/2: 4.6 ± 4.0^a hours
  Tmax: 2.3 ± 1.0 h
[7]; in vivo, iv, 20 nmol
  AUC0-t: 0.0125667 ± 0.0018009 µM·h
  C0: 11.133 ± 1.234 nM
  CL: 0.70 ± 0.09 mL/min/kg
  T1/2: 1.6 ± 0.1 h
  Vdss: 0.05 ± 0.01 L/kg
[7]; in vivo, iv, 40 nmol
  AUC0-t: 0.040075 ± 0.0124583 µM·h
  C0: 27.9 ± 6.124 nM
  CL: 0.53 ± 0.21 mL/min/kg
  T1/2: 2.8 ± 0.3 h
  Vdss: 0.04 ± 0.01 L/kg
[7]; in vivo, iv, 120 nmol
  AUC0-t: 0.1116667 ± 0.0150444 µM·h
  C0: 60.4 ± 1.039 nM
  CL: 0.47 ± 0.06 mL/min/kg
  T1/2: 3.3 ± 1.2 h
  Vdss: 0.07 ± 0.04 L/kg
[7]; in vivo, sc
  % bioavailability: 123%
[7]; in vivo, sc, 120 nmol
  AUC0-t: 0.14296 ± 0.0838207 µM·h
[7]; [10]
  T1/2: 7.5 ± 5.1 h
  Tmax: 2.4 ± 0.9 h
[8]
  % of dose excreted unchanged in urine: 2.5%
[9]
  clearance in sham versus 5/6-nephrectomized rats (in words): similar

## leptin
[2]
  apparent hydrodynamic diameter (DH): 4.3 nm
[2]; listed as Leptin
  apparent hydrodynamic diameter (DH): 4.2 nm
